Patent publication US20230057012A1 (SCHOLAR ROCK, published 2023)

Tests used:
[1] = molecular target: T1, murine LRRC33-proTGFβ1 complex (mouse; human, UniProt Q8BMT4 20-651, limits assumed); experiment: SPR Biacore; Fab
T1 construct: As for m5; also called mLRRC33-proTGFβ1; LLC
Description: (§1) Surface plasmon resonance (SPR) was used to measure binding kinetics using a BIACORE® system. […] Experiments were carried out with eight types of LLCs, namely, hLTBP1-proTGFβ1, mLTBP1-proTGFβ1, hLTBP3-proTGFβ1, mLTBP3-proTGFβ1, hGARP-proTGFβ1, mGARP-proTGFβ1, hLRRC33-proTGFβ1 and mLRRC33-proTGFβ1.
(§2) A BIACORE® system was employed to determine the monovalent binding affinity and the kinetic parameters for antigen binding of test antibodies. The binding kinetics were evaluated by surface plasmon resonance using Biacore 8K (GE Healthcare). A Biotin CAP sensor chip was used to capture the biotinylated antigens. […] Multi-cycle kinetics was employed where each analyte concentration was injected in a separate cycle and the sensor chip surface was regenerated after each cycle. All the assays were carried out in freshly prepared 1× HBS-EP+ buffer (10 mM HEPES, 150 mM NaCl, 3 mM EDTA, 0.05% Tween20, pH 7.4). Data for all the analyte concentrations for each interaction were fit globally to a 1:1 binding model to obtain the kinetic parameters. The Sensorgram for 0 nM analyte concentration was used as reference.

[2] = molecular target: T2, human LRRC33-proTGFβ1 complex (human, UniProt Q86YC3 19-650; P01137 30-390, limits assumed); experiment: SPR Biacore; Fab
T2 construct: Purified recombinant, biotinylated antigen complex; also called hLRRC33-proTGFβ1; LLC
T2 sequence (Q86YC3 19-650 limits assumed, chain 1 of 2): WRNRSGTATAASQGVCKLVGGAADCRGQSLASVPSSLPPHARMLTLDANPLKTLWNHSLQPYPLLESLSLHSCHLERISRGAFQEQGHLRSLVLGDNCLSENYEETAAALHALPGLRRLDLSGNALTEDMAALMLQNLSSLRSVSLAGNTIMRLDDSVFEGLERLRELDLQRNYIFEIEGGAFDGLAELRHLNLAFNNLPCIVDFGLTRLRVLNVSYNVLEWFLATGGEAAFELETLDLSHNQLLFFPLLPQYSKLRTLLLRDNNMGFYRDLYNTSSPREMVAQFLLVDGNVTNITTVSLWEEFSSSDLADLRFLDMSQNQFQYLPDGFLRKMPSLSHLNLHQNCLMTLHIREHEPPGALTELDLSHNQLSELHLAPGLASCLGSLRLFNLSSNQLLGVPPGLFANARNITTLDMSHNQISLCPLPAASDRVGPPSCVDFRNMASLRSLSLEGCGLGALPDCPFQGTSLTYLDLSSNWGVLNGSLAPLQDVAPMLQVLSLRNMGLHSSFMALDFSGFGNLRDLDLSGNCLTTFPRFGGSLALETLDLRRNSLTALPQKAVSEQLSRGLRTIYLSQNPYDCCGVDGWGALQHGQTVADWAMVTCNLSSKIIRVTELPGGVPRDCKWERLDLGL
T2 sequence (P01137 30-390 limits assumed, chain 2 of 2): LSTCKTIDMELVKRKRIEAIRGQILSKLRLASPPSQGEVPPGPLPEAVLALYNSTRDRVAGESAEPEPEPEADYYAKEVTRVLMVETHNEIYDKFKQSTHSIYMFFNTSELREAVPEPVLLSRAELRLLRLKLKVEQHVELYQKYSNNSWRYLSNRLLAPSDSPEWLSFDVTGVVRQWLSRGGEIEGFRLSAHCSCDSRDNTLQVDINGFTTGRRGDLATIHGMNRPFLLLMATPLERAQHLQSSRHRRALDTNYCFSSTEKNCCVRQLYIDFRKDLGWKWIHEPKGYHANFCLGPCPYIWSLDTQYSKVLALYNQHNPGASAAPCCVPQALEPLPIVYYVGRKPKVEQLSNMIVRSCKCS
Description: as §1, §2

[3] = molecular target: T3, human GARP-proTGFβ1 complex (human, UniProt Q14392 18-627; P01137 30-390, limits assumed); experiment: ELISA, purified hIgG4 titrated from about 0.002 to 100 nM, readout RLU, panel hGARP-TGFb1
T3 construct: Purified recombinant, biotinylated antigen complex; also called hGARP-proTGFβ1; LLC
T3 sequence (Q14392 18-627 limits assumed, chain 1 of 2): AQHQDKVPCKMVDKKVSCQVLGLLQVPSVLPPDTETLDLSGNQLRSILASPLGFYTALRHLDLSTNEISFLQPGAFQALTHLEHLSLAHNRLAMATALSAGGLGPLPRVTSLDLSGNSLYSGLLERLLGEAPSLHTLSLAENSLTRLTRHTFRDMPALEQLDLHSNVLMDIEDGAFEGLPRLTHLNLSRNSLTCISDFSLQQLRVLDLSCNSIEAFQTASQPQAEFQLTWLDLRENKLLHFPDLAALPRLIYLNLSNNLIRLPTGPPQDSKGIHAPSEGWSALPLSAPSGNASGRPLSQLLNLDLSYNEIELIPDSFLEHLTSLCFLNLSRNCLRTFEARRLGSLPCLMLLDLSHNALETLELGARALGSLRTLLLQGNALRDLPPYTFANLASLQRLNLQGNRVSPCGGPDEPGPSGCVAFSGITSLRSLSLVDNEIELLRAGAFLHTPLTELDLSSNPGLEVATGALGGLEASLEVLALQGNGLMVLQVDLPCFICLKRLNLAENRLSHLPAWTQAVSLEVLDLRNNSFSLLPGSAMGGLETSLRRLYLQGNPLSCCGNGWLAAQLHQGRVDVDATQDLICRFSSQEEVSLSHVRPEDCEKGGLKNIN
T3 sequence (P01137 30-390 limits assumed, chain 2 of 2): as the sequence (P01137 30-390 limits assumed, chain 2 of 2) above

[4] = molecular target: T4, murine LTBP3-proTGFβ1 complex (mouse; human, UniProt Q61810 41-1245; P01137 30-390, limits assumed); experiment: ELISA, purified hIgG4 titrated from about 0.002 to 100 nM, readout RLU, panel mLTBP3-TGFb1
T4 construct: also called mLTBP3-proTGFβ1; LLC

[5] = molecular target: T5, human LTBP1-proTGFβ1 complex (human, UniProt Q14766 347-1721; P01137 30-390, limits assumed); experiment: ELISA, purified hIgG4 titrated from about 0.002 to 100 nM, readout RLU, panel hLTBP1-TGFb1
T5 construct: also called hLTBP1-proTGFβ1; large latent complex (LLC)
T5 sequence (Q14766 347-1721 limits assumed, chain 1 of 2): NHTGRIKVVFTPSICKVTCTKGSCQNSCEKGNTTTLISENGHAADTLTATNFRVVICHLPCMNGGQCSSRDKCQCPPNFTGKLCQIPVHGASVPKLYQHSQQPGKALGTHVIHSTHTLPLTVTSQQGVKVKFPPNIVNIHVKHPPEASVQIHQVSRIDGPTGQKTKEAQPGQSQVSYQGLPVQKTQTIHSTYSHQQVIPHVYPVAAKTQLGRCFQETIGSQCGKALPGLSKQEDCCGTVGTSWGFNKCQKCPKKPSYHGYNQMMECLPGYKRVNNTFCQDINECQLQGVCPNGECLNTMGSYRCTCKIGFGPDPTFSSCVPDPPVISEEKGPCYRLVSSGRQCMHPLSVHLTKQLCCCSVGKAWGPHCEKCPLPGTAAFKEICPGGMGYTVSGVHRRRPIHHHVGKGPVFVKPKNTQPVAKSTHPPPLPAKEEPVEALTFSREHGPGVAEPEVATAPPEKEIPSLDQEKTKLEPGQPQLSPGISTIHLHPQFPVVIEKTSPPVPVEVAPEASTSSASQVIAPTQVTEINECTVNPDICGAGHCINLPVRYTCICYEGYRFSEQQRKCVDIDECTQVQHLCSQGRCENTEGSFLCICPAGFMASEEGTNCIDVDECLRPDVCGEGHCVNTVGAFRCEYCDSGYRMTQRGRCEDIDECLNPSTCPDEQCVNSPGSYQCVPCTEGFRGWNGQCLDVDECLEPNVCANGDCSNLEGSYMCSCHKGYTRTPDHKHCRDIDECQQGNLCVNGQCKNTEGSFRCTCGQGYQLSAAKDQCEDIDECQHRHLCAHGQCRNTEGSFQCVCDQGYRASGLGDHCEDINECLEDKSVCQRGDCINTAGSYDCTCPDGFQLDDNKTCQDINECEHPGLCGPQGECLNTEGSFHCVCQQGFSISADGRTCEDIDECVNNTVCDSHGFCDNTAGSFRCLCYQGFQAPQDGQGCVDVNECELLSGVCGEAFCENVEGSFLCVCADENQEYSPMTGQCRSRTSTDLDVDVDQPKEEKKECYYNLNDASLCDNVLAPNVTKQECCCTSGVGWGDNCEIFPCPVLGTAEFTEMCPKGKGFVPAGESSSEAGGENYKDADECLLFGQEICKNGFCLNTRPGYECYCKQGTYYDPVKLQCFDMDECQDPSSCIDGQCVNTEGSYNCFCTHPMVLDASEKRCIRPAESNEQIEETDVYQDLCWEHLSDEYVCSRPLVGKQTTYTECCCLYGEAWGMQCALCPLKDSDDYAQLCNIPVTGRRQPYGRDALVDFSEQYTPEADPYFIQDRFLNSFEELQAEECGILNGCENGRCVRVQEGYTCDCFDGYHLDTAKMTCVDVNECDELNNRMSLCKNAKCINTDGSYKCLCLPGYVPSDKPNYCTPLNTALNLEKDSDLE
T5 sequence (P01137 30-390 limits assumed, chain 2 of 2): as the sequence (P01137 30-390 limits assumed, chain 2 of 2) above

[6] = molecular target: T6, murine LTBP1-proTGFβ1 complex (mouse; human, UniProt Q8CG19 339-1712; P01137 30-390, limits assumed); experiment: ELISA, purified hIgG4 titrated from about 0.002 to 100 nM, readout RLU, panel mLTBP1-TGFb1
T6 construct: also called mLTBP1-proTGFβ1; LLC

[7] = molecular target: T7, murine GARP-proTGFβ1 complex (mouse; human, UniProt G3XA59 18-628; P01137 30-390, limits assumed); experiment: ELISA, purified hIgG4 titrated from about 0.002 to 100 nM, readout RLU, panel mGARP-TGFb1
T7 construct: As for m5; also called mGARP-proTGFβ1; LLC
T7 sequence (G3XA59 18-628 limits assumed, chain 1 of 2): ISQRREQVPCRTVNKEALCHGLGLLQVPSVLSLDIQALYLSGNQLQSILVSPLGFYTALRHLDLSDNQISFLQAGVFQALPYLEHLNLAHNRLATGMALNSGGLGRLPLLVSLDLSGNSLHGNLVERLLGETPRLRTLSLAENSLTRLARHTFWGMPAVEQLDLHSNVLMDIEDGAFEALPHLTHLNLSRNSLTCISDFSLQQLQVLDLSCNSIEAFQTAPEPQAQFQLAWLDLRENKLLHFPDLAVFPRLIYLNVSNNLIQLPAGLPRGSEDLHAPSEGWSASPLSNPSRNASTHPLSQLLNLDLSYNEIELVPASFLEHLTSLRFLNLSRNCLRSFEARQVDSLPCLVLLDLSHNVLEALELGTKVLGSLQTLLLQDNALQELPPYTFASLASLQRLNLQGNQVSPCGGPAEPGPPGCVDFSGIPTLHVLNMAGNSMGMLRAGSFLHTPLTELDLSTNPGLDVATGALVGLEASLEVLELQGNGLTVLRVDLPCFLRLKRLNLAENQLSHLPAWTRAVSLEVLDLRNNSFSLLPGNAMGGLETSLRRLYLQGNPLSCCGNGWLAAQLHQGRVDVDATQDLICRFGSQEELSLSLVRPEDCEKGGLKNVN
T7 sequence (P01137 30-390 limits assumed, chain 2 of 2): as the sequence (P01137 30-390 limits assumed, chain 2 of 2) above

[8] = molecular target: T8, human LTBP3-proTGFβ1 complex (human, UniProt Q9NS15 44-1303; P01137 30-390, limits assumed); experiment: ELISA, purified hIgG4 titrated from about 0.002 to 100 nM, readout RLU, panel hLTBP3-TGFb1
T8 construct: Purified recombinant, biotinylated antigen complex; also called hLTBP3-proTGFβ1; LLC

[9] = molecular target: endogenous LTBP-proTGFβ1 of LN229 cells (human); experiment: cell-based or functional assay
endogenous LTBP-proTGFβ1 of LN229 cells (human), sequence (P01137 30-390): as the sequence (P01137 30-390 limits assumed, chain 2 of 2) above

[10] = molecular target: T4, murine LTBP3-proTGFβ1 complex; experiment: SPR Biacore; Fab
Description: as §1, §2

[11] = molecular target: T5, human LTBP1-proTGFβ1 complex; experiment: SPR Biacore; Fab
Description: as §1, §2

[12] = molecular target: T3, human GARP-proTGFβ1 complex; experiment: SPR Biacore; Fab
Description: as §1, §2

[13] = molecular target: T8, human LTBP3-proTGFβ1 complex; experiment: SPR Biacore; Fab
Description: as §1, §2

[14] = molecular target: T6, murine LTBP1-proTGFβ1 complex; experiment: SPR Biacore; Fab
Description: as §1, §2

[15] = molecular target: T7, murine GARP-proTGFβ1 complex; experiment: SPR Biacore; Fab
Description: as §1, §2

[16] = molecular target: T5, human LTBP1-proTGFβ1 complex; experiment: SPR (Biacore), binding to Human LTBP1-ProTGFβ1, Fab at 0.625-10 nM
Description: as §2
Binding kinetics was evaluated by surface plasmon resonance using a BIACORE® 8K (GE) instrument. Biotinylated antigens were captured on a Biotin CAP chip and the Fab fragments of the antibodies were used as analytes. Sensorgrams for Fab binding at variable concentrations (0.6-10 nM) were globally fit to obtain the kinetic parameters.

T1 sequence (Q8BMT4 20-651 limits assumed, chain 1 of 2): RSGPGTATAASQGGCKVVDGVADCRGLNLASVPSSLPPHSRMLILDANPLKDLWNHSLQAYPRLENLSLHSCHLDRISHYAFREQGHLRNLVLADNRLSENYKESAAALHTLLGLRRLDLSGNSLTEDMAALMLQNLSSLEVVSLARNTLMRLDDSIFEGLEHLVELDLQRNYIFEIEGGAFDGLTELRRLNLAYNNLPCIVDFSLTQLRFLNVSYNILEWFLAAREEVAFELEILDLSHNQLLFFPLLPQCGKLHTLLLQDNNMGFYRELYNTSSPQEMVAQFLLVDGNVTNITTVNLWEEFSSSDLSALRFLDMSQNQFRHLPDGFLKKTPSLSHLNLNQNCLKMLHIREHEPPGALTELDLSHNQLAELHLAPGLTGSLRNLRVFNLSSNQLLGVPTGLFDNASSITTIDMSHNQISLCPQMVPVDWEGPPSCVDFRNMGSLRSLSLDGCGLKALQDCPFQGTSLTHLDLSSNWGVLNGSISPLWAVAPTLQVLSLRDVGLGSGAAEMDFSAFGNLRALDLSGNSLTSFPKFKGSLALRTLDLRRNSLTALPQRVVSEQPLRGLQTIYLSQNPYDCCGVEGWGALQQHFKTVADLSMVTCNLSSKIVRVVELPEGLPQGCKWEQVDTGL
T1 sequence (chain, as listed by the source limits assumed, chain 2 of 2): as the sequence (P01137 30-390 limits assumed, chain 2 of 2) above

B1: Ab42 Fab (Fab, V domains shown)
VH: QVQLVESGGGVVQPGRSLRLSCAASGFTFRSYVMHWVRQAPGKGLEWVAVISHEGSLKYYADSVKGRFTISRDNSKNTLYLQMNSLRAEDTAVYYCARPRIAARRGGFGYWGQGTLVTVSS
VL: NFMLTQPHSVSESPGKTVTISCTRSSGNIDNNYVQWYQQRPGSSPTTVIYEDNQRPSGVPDRFSGSIDSSSNSASLTISGLKTEDEADYYCQSYDYDTQGVVFGGGTKLTVL
Fold difference (affinity relative to Ref) [1]: 74 fold | Kd [1]: 0.114 nM | koff [1]: 0.000123 s⁻¹ | kon [1]: 1.08e+06 M⁻¹ s⁻¹ | Fold difference (affinity relative to Ref) [2]: 81 fold | Kd [2]: 0.123 nM | koff [2]: 0.000123 s⁻¹ | kon [2]: 1e+06 M⁻¹ s⁻¹

B2: Ab46 hIgG4 (antibody, V domains shown)
VH: EVQLLESGGGLVQPGGSLRLSCAASGFTFADYAMTWVRQAPGKGLEWVSAISGSGAATYFADSVKGRFTISRDNSKNTLYLQMNSLRAEDTAVYYCARVSSGHWDYDYWGQGTLVTVSS
VL: DIQLTQSPSSLSASVGDRVTITCRASQSISSYLNWYQQKPGKAPKLLIYAASGLESGVPSRFSGSGSGTDFTLTISSLQPEDFATYYCQQTYGVPLTFGGGTKVEIK
notes: hIgG4 immunoglobulin; also called Ab46 (mAb)
EC50 (read off the curve) [3]: ~0.3 nM | EC50 (read off the curve) [4]: ~0.2 nM | EC50 (read off the curve) [5]: ~0.3 nM | EC50 (read off the curve) [6]: ~0.2 nM | EC50 (read off the curve) [7]: ~0.2 nM | EC50 (read off the curve) [8]: ~0.2 nM | mAb IC50 (nM); cell-based potency assay [9]: 0.95 nM

B3: Ab46 Fab (Fab, V domains shown)
VH: B2 VH
VL: B2 VL
notes: Fab fragment
Fold difference (affinity relative to Ref) [10]: 91 fold | Fold difference (affinity relative to Ref) [1]: 95 fold | Fold difference (affinity relative to Ref) [11]: 134 fold | Fold difference (affinity relative to Ref) [12]: 53 fold | Fold difference (affinity relative to Ref) [2]: 118 fold | Fold difference (affinity relative to Ref) [13]: 72 fold | Fold difference (affinity relative to Ref) [14]: 123 fold | Fold difference (affinity relative to Ref) [15]: 69 fold | t1/2 [16]: 2.18 h | fAb IC50 (nM); cell-based potency assay [9]: 0.723 nM
